# T1: EGFRvIII-specific peptide (…)
# T1 sequence (peptide): LEEKKGNYVVTDHC
# B1: B4A3 scFv protein (anti-EGFRvIII scFv) (scFv, part only; not given: scFv linker, domain order, tags, V domains shown, not shown: another chain or arm of the molecule; small tags and cut ends)
# VH: EVQLLESGGGLVQPGGSLRLSCAASGFTFSNYYMSWVRQAPGKGLEWVSGTSPNGGSKYYADSVKGRFTISRDNSKNTLYLQMNSLRAEDTAVYYCAKGRRKLRATRFDYWGQGTLVTVSS
# VL: QSVLTQPPSASGTPGQRVTISCTGSSSNIGNNYVSWYQQHPGTAPKLLIYSDSNRPSGVPDRFSGSKSGTSASLAISGLRSEDEADYYCATWDASLSAYVFGGGTKLTVL
# What was measured:
# [1] = target: EGFRvIII recombinant protein (rhEGFRvIII protein) used in ELISA (human) (UniProt P00533); assay: concentration-dependent ELISA in triplicate, Prism nonlinear regression (apparent affinity)
# [2] = target: T1, EGFRvIII-specific peptide (…); assay: as above
binder,measurement,setting,value
B1,Kd,[1],2.35 nM
same,Kd,[2],0.272 nM

# From patent publication US20190031761A1
